Values quoted from earlier work, collected in article PMC5437010.

Molecular target: factor XIa (Homo sapiens) (UniProt P03951)
Sequence of UniProt P03951 (P03951 388-625): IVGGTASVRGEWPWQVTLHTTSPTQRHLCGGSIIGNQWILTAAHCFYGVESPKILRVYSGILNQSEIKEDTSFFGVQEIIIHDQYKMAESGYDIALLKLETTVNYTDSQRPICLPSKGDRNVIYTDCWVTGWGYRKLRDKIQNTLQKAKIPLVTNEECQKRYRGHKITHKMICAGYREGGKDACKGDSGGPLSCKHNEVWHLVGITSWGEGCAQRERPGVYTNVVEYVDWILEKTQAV

- Ki: 0.4 nM
Substance: KPI KPI (from UniProt P05067)
